Key:
db/db mice [1] = assay: Total blood cholesterol levels in db/db mice (Example 1); assay type: in vivo; conditions: for cholesterol levels T0: day 0, before treatment; for cholesterol levels T0 / cholesterol levels T5 / cholesterol % effect T5-T0 / cholesterol levels T12 / cholesterol % effect T12-T0 / cholesterol levels T19 / cholesterol % effect T19-T0 / cholesterol levels T26 / cholesterol % effect T26-T0: NT-4/5 20 mg/kg s.c., Rosiglitazone 3 mg/kg p.o.; for cholesterol levels T5: day 5; for cholesterol % effect T5-T0: day 5 vs day 0; for cholesterol levels T12: day 12; for cholesterol % effect T12-T0: day 12 vs day 0; for cholesterol levels T19: day 19; for cholesterol % effect T19-T0: day 19 vs day 0; for cholesterol levels T26: day 26; for cholesterol % effect T26-T0: day 26 vs day 0
Method: A difference was considered significant for p<0.05.
The blood triglyceride level and the total blood cholesterol level were determined with a triglyceride assay kit (ref 445850, Beckman Coutler, France) and a total cholesterol kit (ref 467825, Beckman Coutler, France), respectively, using a Synchron CX4 analyzer.

DIO mice = assay: Body weight after intravenous NT-4/5 in DIO mice, separate study (Example 5); assay type: in vivo; conditions: i.v. 5 mg/kg on day 1 and day 4
Excerpt: Two way ANOVA followed by Bonferroni's post-test were used for statistical analysis.

human TrkA = molecular target: T1, human TrkA (Homo sapiens, UniProt P04629); assay: Receptor tyrosine phosphorylation in trkA expressing cell line; assay type: cell-based
T1 construct: expressed in transfected cells
Excerpt: (§1) Assays of TrkB specific activation by pegylated NT-4/5: Stable cell lines expressing human TrkA, TrkB or TrkC were used to determine the functional activity, i.e. receptor phosphorylation, of NT-4/5 and pegylated NT-4/5 as previously described (Sadick et al. Experimental Cell Research 234: 354-361, 1997).
as §1, with “and different forms of” for “and”

db/db mice [2] = assay: Non-fasting serum glucose after single injection in db/db mice (Example 7); assay type: in vivo; conditions: after 4 days; single subcutaneous injection, 5 mg/kg
Method: (§2) Test animals: 30 female db/db mice at 7 weeks of age weighing in the range of 27-34 g were used in this study.
(§3) Administration of NT-4/5 and pegylated NT-4/5: Wild type NT-4/5 was obtained from Genentech Inc. The mice were divided into 5 groups of equivalent body weight distribution (6 mice per group). Each group received on the first day (day 1) of the study one and the only dose of either vehicle, 5 mg/kg of NT-4/5 produced as described above, 5 mg/kg of 2PEG-NT4-G1S, or 5 mg/kg of 1PEG-NT4-G1S. 2PEG-NT4-G1S represents one PEG molecule was conjugated to each NT-4/5 monomer in a NT-4/5 dimer, and 1PEG-NT4-G1S represents one PEG molecule was conjugated to only one monomer of the NT-4/5 dimer. 2PEG-NT4-G1S and 1PEG-NT4-G1S were separated by ion exchange. Four days before starting the treatment (day −4), blood samples were collected from the mice as described previously for the determination of baseline levels of serum glucose. On day 4 after the treatment started, blood samples were collected again to determine serum glucose level. Body weight and food intake were monitored 5 days a week through out the entire study.

[3] = tested on: NONcNZO-10 polygenic obese mice; assay: Water intake, electrolyte balance and endocrine functions in NONcNZO-10 mice (Example 4); assay type: in vivo
Excerpt: Test animals: 40 male NONcNZO-10 polygenic obese mice obtained from Jackson Laboratory at 10 weeks of age weighing in the range of 26-32 g were used in this study.
Administration of NT-4/5: NT-4/5 was produced in E. coli as descried in U.S. Pat. No. 6,184,360. The mice were divided into 6 groups of equivalent body weight and baseline blood glucose distribution (6-7 mice per group). […] A “paired-fed” control group received daily injection of vehicle, but were only fed with the same amount of food the 3 mg/kg group consumed the previous day. On the day when the treatment started (day 1), a baseline blood samples were collected for measuring glucose and triglyceride. Triglyceride level was measured on day 10. At the end of the study (day 12), a terminal blood sample was collected to determine glucose, triglyceride, electrolytes (Na, K, Cl), testoterone, corticosterone, thyroid hormone (total T4) and thyroid stimulating hormone (TSH) levels. Electrolytes, free testosterone, T4 and TSH levels of serum samples were measured by AniLytics (Gaithesburg, M.D) according to the standard protocols employed by the vendor. Other analytes were measured as described above. Body weight, food intake were monitored 5 days per week through out the entire study. Daily water intake was measured from day 5 through day 7.
The effects of NT-4/5 treatment on water intake, electrolyte balance and endocrine functions were also tested. Water intake was measured from day 5 through 7. The electrolyte (i.e., Na, K, and Cl) concentrations were measured using the terminal blood samples taken on day 12. […] One way ANOVA followed by Dunnett's post-test were used for statistical analysis.

db/db mice [4] = assay: Daily food intake after single injection of NT-4/5 or pegylated NT-4/5 in db/db mice (Example 7, Table 22); assay type: in vivo; conditions: for Daily food intake: single s.c. injection 5 mg/kg, db/db mice, mean
Method: as §2, §3

db/db mice [5] = assay: Body weight after single injection of NT-4/5 or pegylated NT-4/5 in db/db mice (Example 7, Table 21); assay type: in vivo; conditions: for Body weight expressed in percentage of baseline value: single 5 mg/kg dose on day 1
Method: as §2, §3

db/db mice [6] = assay: Triglyceride after two weeks daily s.c. NT-4/5 in db/db mice (Example 2); assay type: in vivo; conditions: day 14; 2, 5, 10 or 20 mg/kg s.c. daily for two weeks
Method: In another experiment, db/db mice were subcutaneously injected with vehicle (PBS) or NT-4/5 at 2 mg/kg, 5 mg/kg, 10 mg/kg, or 20 mg/kg daily for two weeks.

lean C57BL/6 mice = assay: Body weight, food intake, nonfasting blood glucose, triglyceride in normal lean C57BL/6 mice (Example 11); assay type: in vivo; conditions: for weight loss as compared to the vehicle control group: female C57BL/6 mice, day 2
Method: Test animals: Mice with normal diet were used in this study.
Administration of NT-4/5: NT-4/5 was produced as described in U.S. Pat. No. 6,184,360. The mice were divided into 5 groups of equivalent baseline body weight, food intake and nonfasting blood glucose level distribution (8 mice per group). Each group received 4 daily subcutaneous doses of vehicle, 1 mg/kg, 2 mg/kg, 5 mg/kg or 10 mg/kg of NT-4/5, respectively, from day 1 to day 4. Body weight and food intake were monitored on daily basis. The non-fasting blood glucose was measure as previously described once a week (day 1 and day 8).

[7] = single subcutaneous injection, 5 mg/kg, significantly
[8] = lean male mice, 1, 2, 5 and 10 mg/kg s.c. daily, dose dependent

T1 sequence (P04629 33-796): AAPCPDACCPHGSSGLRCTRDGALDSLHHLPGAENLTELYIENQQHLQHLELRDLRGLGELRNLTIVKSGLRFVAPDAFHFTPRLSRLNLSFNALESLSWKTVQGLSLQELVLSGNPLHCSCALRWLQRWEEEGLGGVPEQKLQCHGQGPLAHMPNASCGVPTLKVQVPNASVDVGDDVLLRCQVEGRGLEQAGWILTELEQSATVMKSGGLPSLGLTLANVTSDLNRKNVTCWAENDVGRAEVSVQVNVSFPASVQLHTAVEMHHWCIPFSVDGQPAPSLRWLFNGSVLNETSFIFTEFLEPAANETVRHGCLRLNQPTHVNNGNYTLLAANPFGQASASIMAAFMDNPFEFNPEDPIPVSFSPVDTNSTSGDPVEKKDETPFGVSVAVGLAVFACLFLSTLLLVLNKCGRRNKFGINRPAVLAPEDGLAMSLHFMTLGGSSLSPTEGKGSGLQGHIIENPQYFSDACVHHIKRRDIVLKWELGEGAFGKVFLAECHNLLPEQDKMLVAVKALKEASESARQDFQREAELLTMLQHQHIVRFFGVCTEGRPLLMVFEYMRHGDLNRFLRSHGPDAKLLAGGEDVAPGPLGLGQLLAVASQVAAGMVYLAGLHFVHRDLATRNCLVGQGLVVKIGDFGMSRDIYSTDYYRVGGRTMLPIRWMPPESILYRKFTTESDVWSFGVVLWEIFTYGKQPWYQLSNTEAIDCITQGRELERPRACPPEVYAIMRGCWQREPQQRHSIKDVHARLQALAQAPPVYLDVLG

`CN(CCOc1ccc(CC2SC(=O)NC2=O)cc1)c1ccccn1` (stereo not drawn) [Rosiglitazone, reference compound] was tested, and the “cholesterol levels T0” value (db/db mice [1]) was 3.27 mM, the “cholesterol levels T5” value (db/db mice [1]) was 3.48 mM and the “cholesterol % effect T5-T0” value (db/db mice [1]) was 6.5%. For the same molecule, the “cholesterol levels T12” value (db/db mice [1]) was 3.25 mM, the “cholesterol % effect T12-T0” value (db/db mice [1]) was −0.3% and the “cholesterol levels T19” value (db/db mice [1]) was 3.01 mM. For the same molecule, the “cholesterol % effect T19-T0” value (db/db mice [1]) was −7.5%, the “cholesterol levels T26” value (db/db mice [1]) was 3.05 mM and the “cholesterol % effect T26-T0” value (db/db mice [1]) was −6.7%.

B1: NT-4/5: mature human neurotrophin-4/5 (SEQ ID NO:1), obtained from Genentech or produced in E. coli (protein, listed as Homo sapiens)
chain: GVSETAPASRRGELAVCDAVSGWVTDRRTAVDLRGREVEVLGEVPAAGGSPLRQYFFETRCKADNAEEGGPGAGGGGCRGVDRRHWVSECKAKQSYVRALTADAQGRVGWRWIRIDTACVCTLLSRTGRA
With B1 the “reduction of body weight” value (DIO mice) was “about 5%”, the “time reduced body weight maintained after the second dose” value (DIO mice) was “at least 10 days” and the “receptor tyrosine phosphorylation of trkA-expressing cell line” value (human TrkA) was “did not increase receptor tyrosine phosphorylation”. For the same molecule, the “non-fasting serum glucose levels” value (db/db mice [2]) was “showed a tendency to reduce”, the serum corticosterone levels ([3]; 0.1-3 mg/kg/day, day 12) was “did not significantly change” and the testoterone levels ([3]; 0.1-3 mg/kg/day, day 12) was “did not significantly change”. For the same molecule, the “thyroid stimulating hormone (TSH) level” value ([3]; compared to the vehicle control) was “no change”, the “Total thyroxine T4 reduction” value ([3]; daily 3 mg/kg, still within normal range) was “about 33%” and the “treatment groups showing a statistically significant difference from vehicle in water intake” value ([3]; day 5 through 7, 0.1, 0.3, 1 and 3 mg/kg) was “None”. The “blood cholesterol level decrease” value (db/db mice [1]; 20 mg/kg s.c., not statistically significant) was 20-30%, the “cholesterol levels T0” value (db/db mice [1]) was 3.42 mM and the “cholesterol levels T5” value (db/db mice [1]) was 2.85 mM. The “cholesterol % effect T5-T0” value (db/db mice [1]) was −16.4%, the “cholesterol levels T12” value (db/db mice [1]) was 2.66 mM and the “cholesterol % effect T12-T0” value (db/db mice [1]) was −23.7%. For the same molecule, the “cholesterol levels T19” value (db/db mice [1]) was 2.40 mM, the “cholesterol % effect T19-T0” value (db/db mice [1]) was −31.7% and the “cholesterol levels T26” value (db/db mice [1]) was 2.67 mM. The “cholesterol % effect T26-T0” value (db/db mice [1]) was −23.5%, the Daily food intake (db/db mice [4]; Day 1) was 6.6 g/day and the Daily food intake (db/db mice [4]; Day 2) was 5.2 g/day. The Daily food intake (db/db mice [4]; Day 3) was 7.3 g/day, the Daily food intake (db/db mice [4]; Day 4) was 6.3 g/day and the “food intake” value (db/db mice [4]; [7]) was “reduced”. For the same molecule, the “Body weight expressed in percentage of baseline value” (from here on “Body weight expressed in percentage”) (db/db mice [5]; Day 1) was 100.0 % of baseline, the “Body weight expressed in percentage” value (db/db mice [5]; Day 2) was 97.7 % of baseline and the “Body weight expressed in percentage” value (db/db mice [5]; Day 3) was 100.5 % of baseline. The “Body weight expressed in percentage” value (db/db mice [5]; Day 4) was 101.7 % of baseline, the “body weight growth” value (db/db mice [5]; [7]) was “reduced the body weight growth” and the “triglyceride level as compared to vehicle” value (db/db mice [6]) was “Significant reduction”. For the same molecule, the “weight loss as compared to the vehicle control group” value (lean C57BL/6 mice; 5 mg/kg) was “about 8%”, the “weight loss as compared to the vehicle control group” value (lean C57BL/6 mice; 10 mg/kg) was “about 11%” and the “blood triglyceride” value (lean C57BL/6 mice; [8]) was “significantly reduced blood triglyceride”. The “body weight” value (lean C57BL/6 mice; [8]) was “significantly reduced the body weight”, the “food intake” value (lean C57BL/6 mice; lean male mice, 1, 5 and 10 mg/kg s.c. daily, dose dependent) was “significantly reduced food intake” and the “nonfasting blood glucose” value (lean C57BL/6 mice; lean male mice, 2, 5 and 10 mg/kg s.c. daily, dose dependent) was “significantly reduced nonfasting blood glucose”.

From patent publication US20090203610A1, “METHODS OF TREATING OBESITY OR DIABETES USING NT-4/5” (RINAT NEUROSCIENCE CORPORATION, priority 2004, published 2009)
